Assay results taken from US20260015399A1 (Boehringer Ingelheim, published 2026).
*1 amine or outer side, *2 acyl side, *3 side chain or, on linkers, in order; H or OH if unused. Side-chain parts run from the residue outwards. The star is where a group is joined. C18 diacid = O=C(O)CCCCCCCCCCCCCCCCC(=O)*; γGlu = O=C(O)[C@H](CCC(=O)[*:2])N[*:1]; Isovaleryl = CC(C)CC(=O)*; Ahx = NCCCCCC(=O)O

T1: human NPY5 receptor (human, UniProt Q15761 1-445)
T1 sequence (looked up): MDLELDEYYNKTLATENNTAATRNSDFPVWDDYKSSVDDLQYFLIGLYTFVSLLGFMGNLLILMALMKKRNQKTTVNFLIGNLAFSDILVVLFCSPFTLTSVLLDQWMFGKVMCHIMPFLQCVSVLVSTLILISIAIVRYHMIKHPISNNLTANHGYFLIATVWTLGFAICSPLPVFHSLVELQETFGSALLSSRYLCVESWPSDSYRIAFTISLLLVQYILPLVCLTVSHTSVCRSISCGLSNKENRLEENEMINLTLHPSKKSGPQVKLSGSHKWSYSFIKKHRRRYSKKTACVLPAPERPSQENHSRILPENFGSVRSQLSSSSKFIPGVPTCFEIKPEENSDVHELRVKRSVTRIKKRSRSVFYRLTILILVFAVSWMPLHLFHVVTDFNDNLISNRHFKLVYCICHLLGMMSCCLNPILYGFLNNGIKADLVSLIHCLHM

T2: human NPY1 receptor (human, UniProt P25929 1-384)
T2 sequence (looked up): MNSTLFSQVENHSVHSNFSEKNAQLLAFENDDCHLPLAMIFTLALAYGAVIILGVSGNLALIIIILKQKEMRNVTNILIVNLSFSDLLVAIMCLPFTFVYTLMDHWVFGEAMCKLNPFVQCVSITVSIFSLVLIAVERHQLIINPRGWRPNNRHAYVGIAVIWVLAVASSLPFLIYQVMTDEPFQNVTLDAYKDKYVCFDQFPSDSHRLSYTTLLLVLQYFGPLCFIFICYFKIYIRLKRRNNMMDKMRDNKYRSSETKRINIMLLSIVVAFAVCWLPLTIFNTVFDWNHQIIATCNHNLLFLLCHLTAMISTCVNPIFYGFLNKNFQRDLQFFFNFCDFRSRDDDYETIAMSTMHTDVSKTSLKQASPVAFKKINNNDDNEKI

T3: human NPY2 receptor (human, UniProt P49146 1-381)
T3 sequence (looked up): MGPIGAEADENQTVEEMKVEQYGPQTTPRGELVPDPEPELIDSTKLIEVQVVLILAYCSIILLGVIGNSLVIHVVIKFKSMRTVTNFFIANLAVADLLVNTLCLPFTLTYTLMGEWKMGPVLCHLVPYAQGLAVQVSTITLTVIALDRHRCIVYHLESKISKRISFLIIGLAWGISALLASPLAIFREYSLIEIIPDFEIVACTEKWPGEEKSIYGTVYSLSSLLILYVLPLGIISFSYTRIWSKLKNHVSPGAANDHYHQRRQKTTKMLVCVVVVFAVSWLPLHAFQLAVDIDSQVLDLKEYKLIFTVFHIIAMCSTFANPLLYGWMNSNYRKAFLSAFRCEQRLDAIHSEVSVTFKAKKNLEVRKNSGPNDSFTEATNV

B1: Compound 11 (peptide)
peptide: Isovaleryl-APEK([Ahx-γGlu-C18 diacid])PEADASPEEIQRYYISLRHYYNWLTRQRY-NH2
SMILES: CC[C@H](C)[C@H](NC(=O)[C@H](Cc1ccc(O)cc1)NC(=O)[C@H](Cc1ccc(O)cc1)NC(=O)[C@H](CCCNC(=N)N)NC(=O)[C@H](CCC(N)=O)NC(=O)[C@@H](NC(=O)[C@H](CCC(=O)O)NC(=O)[C@H](CCC(=O)O)NC(=O)[C@@H]1CCCN1C(=O)[C@H](CO)NC(=O)[C@H](C)NC(=O)[C@H](CC(=O)O)NC(=O)[C@H](C)NC(=O)[C@H](CCC(=O)O)NC(=O)[C@@H]1CCCN1C(=O)[C@H](CCCCNC(=O)CCCCCNC(=O)CC[C@H](NC(=O)CCCCCCCCCCCCCCCCC(=O)O)C(=O)O)NC(=O)[C@H](CCC(=O)O)NC(=O)[C@@H]1CCCN1C(=O)[C@H](C)NC(=O)CC(C)C)[C@@H](C)CC)C(=O)N[C@@H](CO)C(=O)N[C@@H](CC(C)C)C(=O)N[C@@H](CCCNC(=N)N)C(=O)N[C@@H](Cc1c[nH]cn1)C(=O)N[C@@H](Cc1ccc(O)cc1)C(=O)N[C@@H](Cc1ccc(O)cc1)C(=O)N[C@@H](CC(N)=O)C(=O)N[C@@H](Cc1c[nH]c2ccccc12)C(=O)N[C@@H](CC(C)C)C(=O)N[C@H](C(=O)N[C@@H](CCCNC(=N)N)C(=O)N[C@@H](CCC(N)=O)C(=O)N[C@@H](CCCNC(=N)N)C(=O)N[C@@H](Cc1ccc(O)cc1)C(N)=O)[C@@H](C)O
B2: Compound 53 (peptide)
peptide: Isovaleryl-APEK([Ahx-γGlu-C18 diacid])PEEDAEPEEVQRYYVSLRHYYNWLTRQRY-NH2
SMILES: CC(C)CC(=O)N[C@@H](C)C(=O)N1CCC[C@H]1C(=O)N[C@@H](CCC(=O)O)C(=O)N[C@@H](CCCCNC(=O)CCCCCNC(=O)CC[C@H](NC(=O)CCCCCCCCCCCCCCCCC(=O)O)C(=O)O)C(=O)N1CCC[C@H]1C(=O)N[C@@H](CCC(=O)O)C(=O)N[C@@H](CCC(=O)O)C(=O)N[C@@H](CC(=O)O)C(=O)N[C@@H](C)C(=O)N[C@@H](CCC(=O)O)C(=O)N1CCC[C@H]1C(=O)N[C@@H](CCC(=O)O)C(=O)N[C@@H](CCC(=O)O)C(=O)N[C@H](C(=O)N[C@@H](CCC(N)=O)C(=O)N[C@@H](CCCNC(=N)N)C(=O)N[C@@H](Cc1ccc(O)cc1)C(=O)N[C@@H](Cc1ccc(O)cc1)C(=O)N[C@H](C(=O)N[C@@H](CO)C(=O)N[C@@H](CC(C)C)C(=O)N[C@@H](CCCNC(=N)N)C(=O)N[C@@H](Cc1c[nH]cn1)C(=O)N[C@@H](Cc1ccc(O)cc1)C(=O)N[C@@H](Cc1ccc(O)cc1)C(=O)N[C@@H](CC(N)=O)C(=O)N[C@@H](Cc1c[nH]c2ccccc12)C(=O)N[C@@H](CC(C)C)C(=O)N[C@H](C(=O)N[C@@H](CCCNC(=N)N)C(=O)N[C@@H](CCC(N)=O)C(=O)N[C@@H](CCCNC(=N)N)C(=O)N[C@@H](Cc1ccc(O)cc1)C(N)=O)[C@@H](C)O)C(C)C)C(C)C
B3: Compound 55 (peptide)
peptide: Isovaleryl-APEK([Ahx-γGlu-C18 diacid])PEEDASEEEIQRYYVSLRHYYNWLTRQRY-NH2
SMILES: CC[C@H](C)[C@H](NC(=O)[C@H](CCC(=O)O)NC(=O)[C@H](CCC(=O)O)NC(=O)[C@H](CCC(=O)O)NC(=O)[C@H](CO)NC(=O)[C@H](C)NC(=O)[C@H](CC(=O)O)NC(=O)[C@H](CCC(=O)O)NC(=O)[C@H](CCC(=O)O)NC(=O)[C@@H]1CCCN1C(=O)[C@H](CCCCNC(=O)CCCCCNC(=O)CC[C@H](NC(=O)CCCCCCCCCCCCCCCCC(=O)O)C(=O)O)NC(=O)[C@H](CCC(=O)O)NC(=O)[C@@H]1CCCN1C(=O)[C@H](C)NC(=O)CC(C)C)C(=O)N[C@@H](CCC(N)=O)C(=O)N[C@@H](CCCNC(=N)N)C(=O)N[C@@H](Cc1ccc(O)cc1)C(=O)N[C@@H](Cc1ccc(O)cc1)C(=O)N[C@H](C(=O)N[C@@H](CO)C(=O)N[C@@H](CC(C)C)C(=O)N[C@@H](CCCNC(=N)N)C(=O)N[C@@H](Cc1c[nH]cn1)C(=O)N[C@@H](Cc1ccc(O)cc1)C(=O)N[C@@H](Cc1ccc(O)cc1)C(=O)N[C@@H](CC(N)=O)C(=O)N[C@@H](Cc1c[nH]c2ccccc12)C(=O)N[C@@H](CC(C)C)C(=O)N[C@H](C(=O)N[C@@H](CCCNC(=N)N)C(=O)N[C@@H](CCC(N)=O)C(=O)N[C@@H](CCCNC(=N)N)C(=O)N[C@@H](Cc1ccc(O)cc1)C(N)=O)[C@@H](C)O)C(C)C
B4: Compound 183 (peptide)
peptide: Isovaleryl-APEK([Ahx-γGlu-C18 diacid])AEEDASPEEIQRYYVSLRHYYNWLTRQRY-NH2
SMILES: CC[C@H](C)[C@H](NC(=O)[C@H](CCC(=O)O)NC(=O)[C@H](CCC(=O)O)NC(=O)[C@@H]1CCCN1C(=O)[C@H](CO)NC(=O)[C@H](C)NC(=O)[C@H](CC(=O)O)NC(=O)[C@H](CCC(=O)O)NC(=O)[C@H](CCC(=O)O)NC(=O)[C@H](C)NC(=O)[C@H](CCCCNC(=O)CCCCCNC(=O)CC[C@H](NC(=O)CCCCCCCCCCCCCCCCC(=O)O)C(=O)O)NC(=O)[C@H](CCC(=O)O)NC(=O)[C@@H]1CCCN1C(=O)[C@H](C)NC(=O)CC(C)C)C(=O)N[C@@H](CCC(N)=O)C(=O)N[C@@H](CCCNC(=N)N)C(=O)N[C@@H](Cc1ccc(O)cc1)C(=O)N[C@@H](Cc1ccc(O)cc1)C(=O)N[C@H](C(=O)N[C@@H](CO)C(=O)N[C@@H](CC(C)C)C(=O)N[C@@H](CCCNC(=N)N)C(=O)N[C@@H](Cc1c[nH]cn1)C(=O)N[C@@H](Cc1ccc(O)cc1)C(=O)N[C@@H](Cc1ccc(O)cc1)C(=O)N[C@@H](CC(N)=O)C(=O)N[C@@H](Cc1c[nH]c2ccccc12)C(=O)N[C@@H](CC(C)C)C(=O)N[C@H](C(=O)N[C@@H](CCCNC(=N)N)C(=O)N[C@@H](CCC(N)=O)C(=O)N[C@@H](CCCNC(=N)N)C(=O)N[C@@H](Cc1ccc(O)cc1)C(N)=O)[C@@H](C)O)C(C)C
B5: Compound 196 (peptide)
peptide: Isovaleryl-APEK([Ahx-γGlu-C18 diacid])PEADASPEELQRYYVSLRHYYNWLTRQRY-NH2
SMILES: CC(C)CC(=O)N[C@@H](C)C(=O)N1CCC[C@H]1C(=O)N[C@@H](CCC(=O)O)C(=O)N[C@@H](CCCCNC(=O)CCCCCNC(=O)CC[C@H](NC(=O)CCCCCCCCCCCCCCCCC(=O)O)C(=O)O)C(=O)N1CCC[C@H]1C(=O)N[C@@H](CCC(=O)O)C(=O)N[C@@H](C)C(=O)N[C@@H](CC(=O)O)C(=O)N[C@@H](C)C(=O)N[C@@H](CO)C(=O)N1CCC[C@H]1C(=O)N[C@@H](CCC(=O)O)C(=O)N[C@@H](CCC(=O)O)C(=O)N[C@@H](CC(C)C)C(=O)N[C@@H](CCC(N)=O)C(=O)N[C@@H](CCCNC(=N)N)C(=O)N[C@@H](Cc1ccc(O)cc1)C(=O)N[C@@H](Cc1ccc(O)cc1)C(=O)N[C@H](C(=O)N[C@@H](CO)C(=O)N[C@@H](CC(C)C)C(=O)N[C@@H](CCCNC(=N)N)C(=O)N[C@@H](Cc1c[nH]cn1)C(=O)N[C@@H](Cc1ccc(O)cc1)C(=O)N[C@@H](Cc1ccc(O)cc1)C(=O)N[C@@H](CC(N)=O)C(=O)N[C@@H](Cc1c[nH]c2ccccc12)C(=O)N[C@@H](CC(C)C)C(=O)N[C@H](C(=O)N[C@@H](CCCNC(=N)N)C(=O)N[C@@H](CCC(N)=O)C(=O)N[C@@H](CCCNC(=N)N)C(=O)N[C@@H](Cc1ccc(O)cc1)C(N)=O)[C@@H](C)O)C(C)C

Columns and labels:
human NPY5 receptor = target: T1, human NPY5 receptor; experiment: cell-based or functional assay
human NPY1 receptor = target: T2, human NPY1 receptor; experiment: cell-based or functional assay
human NPY4 receptor = human NPY4 receptor (human, UniProt P50391 1-375); experiment: cell-based or functional assay
human NPY2 receptor [1] = target: T3, human NPY2 receptor; experiment: cell-based or functional assay
human NPY2 receptor [2] = target: T3, human NPY2 receptor; experiment: RLB: displacement of 125I-PYY(1-36) from hNPY2R membranes

Sequence of human NPY4 receptor (P50391 whole entry): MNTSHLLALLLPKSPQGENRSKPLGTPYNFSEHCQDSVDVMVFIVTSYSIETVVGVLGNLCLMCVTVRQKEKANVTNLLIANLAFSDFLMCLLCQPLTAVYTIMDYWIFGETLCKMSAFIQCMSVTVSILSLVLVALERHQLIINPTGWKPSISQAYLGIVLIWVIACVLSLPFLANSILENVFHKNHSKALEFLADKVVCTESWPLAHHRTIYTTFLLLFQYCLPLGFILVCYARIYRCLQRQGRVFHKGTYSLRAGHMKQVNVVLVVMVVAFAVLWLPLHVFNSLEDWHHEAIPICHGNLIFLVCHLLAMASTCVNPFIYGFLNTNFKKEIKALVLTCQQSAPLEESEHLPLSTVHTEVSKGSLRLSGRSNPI

Binder | EC50, HTRF cAMP Gi assay (human NPY5 receptor) [nM] | EC50, HTRF cAMP Gi assay (human NPY1 receptor) [nM] | EC50, HTRF cAMP Gi assay (human NPY4 receptor) [nM] | EC50, HTRF cAMP Gi assay (human NPY2 receptor [1]) [nM] | Ki (human NPY2 receptor [2]) [nM]
B1 | > 5000 | > 5000 | > 5000 | 0.136 | 1.4
B2 | > 5000 | > 5000 | > 5000 | 0.352 | 3.07
B3 | > 5000 | > 5000 | > 5000 | 0.352 | 2.96
Isovaleryl-APEK([Ahx-γGlu-C18 diacid])PEAEASPEELQRYYVSLRHYYNWLTRQRY-NH2 [Compound 122] | > 5000 | > 5000 | > 5000 | – | 2.73
B4 | > 5000 | – | – | 0.447 | 18.8
B5 | > 5000 | – | – | 0.086 | 3.57
